Key:
[1] = molecular target: T1, human CXCL8 point mutant L49A (human, UniProt P10145 28-99, limits assumed); assay: cell-based or functional assay
[2] = molecular target: T2, human CXCL8 (IL-8) (human, UniProt P10145 28-99); assay: cell-based or functional assay
T2 sequence: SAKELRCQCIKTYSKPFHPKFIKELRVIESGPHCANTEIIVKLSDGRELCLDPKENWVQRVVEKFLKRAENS

[3] = molecular target: human CXCL8 point mutant I40A (human, UniProt P10145 28-99, limits assumed); assay: SPR (Biacore 2000), antibody captured on Protein A, CXCL8 variant as analyte, 25 C
Method: (§1) Binding kinetics are tested on a Biacore 2000 instrument with Biacore 2000 Evaluation Software Version 4.1 as described above.
(§2) The on-rate (kₒₙ) and off-rate (koff) for each ligand are evaluated using a “1:1 (mass transfer) Binding” binding model. The affinity (KD) is calculated from the binding kinetics according to the relationship: KD=koff/kₒₙ.

[4] = molecular target: T1, human CXCL8 point mutant L49A; assay: as above
Method: as §1, §2

[5] = molecular target: T2, human CXCL8 (IL-8); assay: as above
Method: as §1, §2

[6] = molecular target: human CXCL8 point mutant A35P (human, UniProt P10145 28-99, limits assumed); assay: as above
Method: as §1, §2

[7] = molecular target: human CXCL8 point mutant I10A (human, UniProt P10145 28-99, limits assumed); assay: as above
Method: as §1, §2

[8] = molecular target: human CXCL8 point mutant R6A (human, UniProt P10145 28-99, limits assumed); assay: SPR (Biacore 2000), antibody captured on Protein A
[9] = molecular target: T3, human CXCL3 (Gro gamma) (human, UniProt P19876 35-107); assay: SPR (Biacore 2000), antibody captured on Protein A, chemokine as analyte, 25 C
T3 construct: also called human Gro-gamma
T3 sequence: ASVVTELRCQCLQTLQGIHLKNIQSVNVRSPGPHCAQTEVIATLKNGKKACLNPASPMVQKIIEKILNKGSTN
Method: (§3) Biacore 2000 instrument and Biacore 2000 Evaluation Software Version 4.1 are used for surface plasmon resonance analysis. A […] chip is prepared using manufacturer's EDC/NHS amine coupling method. Briefly, the surfaces of all four flow cells are activated by injecting a 1:1 mixture of EDC/NHS for 7 minutes at 10 μL/min. Protein A is diluted to 100 μg/mL in 10 mM acetate, pH 4.5 buffer, and immobilized to achieve approximately 10,000 RU onto all 4 flow cells by 7-minute injection at a flow rate of 10 μL/minute. Unreacted sites are blocked with a 7-minute injection of ethanolamine at 10 μL/minute. Two injections of glycine (pH 1.5) for 30 seconds at 10 μL/minute are used to remove any non-covalently associated protein. Running buffer is HBS-EP+.
(§4) Antibody 1 or Antibody 2 is diluted to 2 μg/mL in running buffer, and approximately 400-600 RU is captured in flow cell (Fc). Ligands are diluted from 100 μg/mL to 50 nM in running buffer and then two-fold serially diluted in running buffer to 3.125 nM. Duplicate injections of each ligand concentration are injected at 100 μL/min for 150 seconds followed by a dissociation phase. The dissociation phase is 1800 seconds for all ligands. Regeneration is performed by injecting 10 mM glycine (pH 1.5) for 60 seconds at […] over all flow cells. Reference-subtracted data is collected as Fc2-Fc1, Fc3-Fc1, and Fc4-Fc1. The measurements are obtained at 25° C. The on-rate (kₒₙ) and off-rate (koff) for each ligand are evaluated using a “1:1 (mass transfer) Binding” binding model. The affinity […] is calculated from the binding kinetics according to the relationship: KD=koff/kₒₙ.

[10] = molecular target: T4, human CXCL2 (Gro beta) (human, UniProt P19875 35-107); assay: as above
T4 construct: also called human Gro-beta
T4 sequence: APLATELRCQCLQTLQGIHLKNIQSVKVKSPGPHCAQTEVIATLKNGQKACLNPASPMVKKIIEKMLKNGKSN
Method: as §3, §4

[11] = molecular target: T5, human CXCL5 (ENA-78) (human, UniProt P42830 41-114); assay: as above
T5 construct: also called human ENA-78
T5 sequence: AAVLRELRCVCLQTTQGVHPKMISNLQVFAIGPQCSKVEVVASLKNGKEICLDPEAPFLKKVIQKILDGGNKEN
Method: as §3, §4

[12] = molecular target: T2, human CXCL8 (IL-8); assay: as above
Method: as §3, §4

[13] = molecular target: T6, human CXCL6 (GCP-2) (human, UniProt P80162 40-114); assay: as above
T6 construct: also called human GCP-2
T6 sequence: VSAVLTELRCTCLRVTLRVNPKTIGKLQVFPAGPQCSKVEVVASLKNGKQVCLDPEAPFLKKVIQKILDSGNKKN
Method: as §3, §4

[14] = molecular target: T7, human CXCL1 (Gro alpha) (human, UniProt P09341 35-107); assay: as above
T7 construct: also called human Gro-alpha
T7 sequence: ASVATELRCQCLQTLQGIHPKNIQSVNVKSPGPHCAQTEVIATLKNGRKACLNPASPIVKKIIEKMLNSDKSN
Method: as §3, §4

[15] = molecular target: T8, human CXCL7 (NAP-2) (human, UniProt P02775 59-128); assay: as above
T8 construct: also called human NAP-2
T8 sequence: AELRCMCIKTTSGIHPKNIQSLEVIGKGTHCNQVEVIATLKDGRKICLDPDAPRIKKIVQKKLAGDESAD
Method: as §3, §4

[16] = molecular target: T2, human CXCL8 (IL-8); assay: cell-based or functional assay; remark: listed apart in the source
[17] = molecular target: T7, human CXCL1 (Gro alpha); assay: cell-based or functional assay

B1: Antibody 1 (antibody, human IgG4 S228P, kappa, V domains shown)
VH: QVQLVQSGAEVKKPGASVKVSCKASGYEFTSYWIHWVRQAPGQGLEWMGNISPNSGSANYNEKFKSRVTMTRDTSTSTVYMELSSLRSEDTAVYYCAREGPYSYYPSREYYGSDLWGQGTLVTVSS
VL: EIVLTQSPATLSLSPGERATLSCRASQSISNNLHWYQQKPGQAPRLLIYYTSRSVSGIPARFSGSGSGTDFTLTISSLEPEDFAVYYCGQNNEWPEVFGGGTKVEIKR
notes: Full-length IgG4 antibody expressed in NS0 cells
**Q.** With B1 as the binder, how does the “IC50 (U937 FLIPR neutralization)” value [1] read?
**A.** Its value is 1.5 µg/mL.

**Q.** What about the “IC50 (U937 FLIPR neutralization)” value [2] of the same binder?
**A.** Its value is 0.9 µg/mL.

**Q.** What about the Kd [3] of the same binder?
**A.** The Kd was 27.1 nM.

**Q.** And the koff [3]?
**A.** Its koff is 0.000424 s⁻¹.

**Q.** What about the kon [3] of the same binder?
**A.** The kon was 16100 M⁻¹ s⁻¹.

**Q.** What about the Kd [4] of the same binder?
**A.** The Kd was 3.83 nM.

**Q.** And the koff [4]?
**A.** Its koff is 0.000544 s⁻¹.

**Q.** What about the kon [4] of the same binder?
**A.** The kon was 143000 M⁻¹ s⁻¹.

**Q.** And the Kd [5]?
**A.** The Kd was 0.236 nM.

**Q.** And the koff [5]?
**A.** The koff was 0.000441 s⁻¹.

**Q.** And the kon [5]?
**A.** Its kon is 3.03e+06 M⁻¹ s⁻¹.

**Q.** And the Kd [6]?
**A.** Its Kd is 4.74 nM.

**Q.** What about the koff [6] of the same binder?
**A.** Its koff is 0.00497 s⁻¹.

**Q.** And the kon [6]?
**A.** The kon was 1.06e+06 M⁻¹ s⁻¹.

**Q.** What about the Kd [7] of the same binder?
**A.** The Kd was 1.26 nM.

**Q.** What about the koff [7] of the same binder?
**A.** Its koff is 0.000344 s⁻¹.

**Q.** And the kon [7]?
**A.** Its kon is 277000 M⁻¹ s⁻¹.

**Q.** Does B1 bind [8]?
**A.** Result: no binding

**Q.** What about the Kd [9] of the same binder?
**A.** The Kd was 0.172 nM.

**Q.** And the koff [9]?
**A.** Its koff is 0.000123 s⁻¹.

**Q.** And the kon [9]?
**A.** The kon was 716000 M⁻¹ s⁻¹.

**Q.** And the Kd [10]?
**A.** The Kd was 0.171 nM.

**Q.** And the koff [10]?
**A.** Its koff is 0.000131 s⁻¹.

**Q.** And the kon [10]?
**A.** Its kon is 773000 M⁻¹ s⁻¹.

**Q.** What about the Kd [11] of the same binder?
**A.** The Kd was 0.226 nM.

**Q.** And the koff [11]?
**A.** The koff was 0.000122 s⁻¹.

**Q.** What about the kon [11] of the same binder?
**A.** Its kon is 543000 M⁻¹ s⁻¹.

**Q.** And the Kd [12]?
**A.** Its Kd is 0.384 nM.

**Q.** And the koff [12]?
**A.** Its koff is 0.00013 s⁻¹.

**Q.** What about the kon [12] of the same binder?
**A.** Its kon is 339000 M⁻¹ s⁻¹.

**Q.** And the Kd [13]?
**A.** Its Kd is 0.818 nM.

**Q.** And the koff [13]?
**A.** The koff was 0.000578 s⁻¹.

**Q.** And the kon [13]?
**A.** The kon was 707000 M⁻¹ s⁻¹.

**Q.** What about the Kd [14] of the same binder?
**A.** Its Kd is 0.113 nM.

**Q.** And the koff [14]?
**A.** The koff was 0.000105 s⁻¹.

**Q.** What about the kon [14] of the same binder?
**A.** The kon was 930000 M⁻¹ s⁻¹.

**Q.** What about the Kd [15] of the same binder?
**A.** Its Kd is 0.181 nM.

**Q.** What about the koff [15] of the same binder?
**A.** Its koff is 0.000161 s⁻¹.

**Q.** And the kon [15]?
**A.** The kon was 900000 M⁻¹ s⁻¹.

**Q.** And the “IC50, chemotaxis of primary human neutrophils, CXCL8 at 5 nM” value [16]?
**A.** The value was 26.4 nM.

**Q.** And the “IC50, chemotaxis of primary human neutrophils, CXCL8 at 10 nM” value [16]?
**A.** The value was 43.7 nM.

**Q.** What about the “IC50, chemotaxis of primary human neutrophils, CXCL1 at 5 nM” value [17] of the same binder?
**A.** Its value is 18.5 nM.

**Q.** What about the “IC50, chemotaxis of primary human neutrophils, CXCL1 at 20 nM” value [17] of the same binder?
**A.** The value was 40.3 nM.

B2: Antibody 2 (antibody, human IgG4 S228P, kappa, V domains shown)
VH: QVQLVQSGAEVKKPGASVKVSCKASGYEFTSYWIHWVRQAPGQGLEWMGNISPNSGSANYNEKFKSRVTMTRDTSTSTVYMELSSLRSEDTAVYYCAREGPYSYYPSRQYYGSDLWGQGTLVTVSS
VL: EIVLTQSPATLSLSPGERATLSCRASQSISNNLHWYQQKPGQAPRLLIYYTSRSVSGIPARFSGSGSGTDFTLTISSLEPEDFAVYYCGQNNEWPEVFGGGTKVEIKR
notes: as for B1
**Q.** How did the Kd [9] turn out when B2 was run?
**A.** The Kd was 0.379 nM.

**Q.** And the koff [9]?
**A.** Its koff is 0.000176 s⁻¹.

**Q.** And the kon [9]?
**A.** Its kon is 465000 M⁻¹ s⁻¹.

**Q.** What about the Kd [10] of the same binder?
**A.** The Kd was 0.18 nM.

**Q.** And the koff [10]?
**A.** The koff was 2.05e-05 s⁻¹.

**Q.** And the kon [10]?
**A.** The kon was 114000 M⁻¹ s⁻¹.

**Q.** And the Kd [11]?
**A.** Its Kd is 0.354 nM.

**Q.** And the koff [11]?
**A.** Its koff is 0.000151 s⁻¹.

**Q.** And the kon [11]?
**A.** Its kon is 427000 M⁻¹ s⁻¹.

**Q.** And the Kd [12]?
**A.** Its Kd is 0.473 nM.

**Q.** What about the koff [12] of the same binder?
**A.** The koff was 0.000124 s⁻¹.

**Q.** And the kon [12]?
**A.** The kon was 261000 M⁻¹ s⁻¹.

**Q.** What about the Kd [13] of the same binder?
**A.** Its Kd is 0.849 nM.

**Q.** And the koff [13]?
**A.** The koff was 0.000611 s⁻¹.

**Q.** And the kon [13]?
**A.** The kon was 719000 M⁻¹ s⁻¹.

**Q.** What about the Kd [14] of the same binder?
**A.** Its Kd is 0.243 nM.

**Q.** What about the koff [14] of the same binder?
**A.** Its koff is 0.000153 s⁻¹.

**Q.** And the kon [14]?
**A.** The kon was 628000 M⁻¹ s⁻¹.

**Q.** And the Kd [15]?
**A.** The Kd was 0.418 nM.

**Q.** And the koff [15]?
**A.** The koff was 0.000218 s⁻¹.

**Q.** And the kon [15]?
**A.** The kon was 521000 M⁻¹ s⁻¹.

Source: patent publication US20180362631A1 (Eli Lilly, published 2018)
